T1: PDK1(h) (human, UniProt O15530 1-556, limits assumed)
T1 sequence (looked up): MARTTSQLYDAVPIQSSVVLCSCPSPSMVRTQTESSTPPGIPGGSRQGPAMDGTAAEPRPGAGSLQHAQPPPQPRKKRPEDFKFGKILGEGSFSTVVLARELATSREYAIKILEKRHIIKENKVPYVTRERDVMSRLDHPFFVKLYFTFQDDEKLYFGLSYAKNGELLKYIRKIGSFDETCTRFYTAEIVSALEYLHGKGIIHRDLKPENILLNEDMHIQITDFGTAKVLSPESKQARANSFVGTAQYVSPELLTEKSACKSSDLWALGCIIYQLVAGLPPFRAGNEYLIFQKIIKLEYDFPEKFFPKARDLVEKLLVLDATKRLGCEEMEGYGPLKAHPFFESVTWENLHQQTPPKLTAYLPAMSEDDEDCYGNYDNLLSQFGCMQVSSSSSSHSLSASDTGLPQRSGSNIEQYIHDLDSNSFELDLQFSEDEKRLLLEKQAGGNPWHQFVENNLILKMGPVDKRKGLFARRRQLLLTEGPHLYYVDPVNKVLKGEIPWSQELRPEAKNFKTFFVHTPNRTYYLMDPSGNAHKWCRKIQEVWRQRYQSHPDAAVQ

T2: ULK3(h) (human, UniProt Q6PHR2 1-472, limits assumed)
T2 sequence (looked up): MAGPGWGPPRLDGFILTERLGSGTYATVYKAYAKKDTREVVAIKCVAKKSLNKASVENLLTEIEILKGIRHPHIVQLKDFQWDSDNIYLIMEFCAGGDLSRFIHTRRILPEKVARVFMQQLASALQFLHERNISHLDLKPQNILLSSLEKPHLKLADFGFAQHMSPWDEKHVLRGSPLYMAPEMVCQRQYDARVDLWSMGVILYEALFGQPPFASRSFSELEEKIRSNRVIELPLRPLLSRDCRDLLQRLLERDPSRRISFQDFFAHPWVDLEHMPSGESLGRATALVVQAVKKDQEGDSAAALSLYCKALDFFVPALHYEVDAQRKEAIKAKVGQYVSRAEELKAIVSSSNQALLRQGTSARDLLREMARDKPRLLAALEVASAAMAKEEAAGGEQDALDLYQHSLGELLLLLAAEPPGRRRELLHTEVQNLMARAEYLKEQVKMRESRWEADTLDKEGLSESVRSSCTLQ

T3: MST1(h) (human, UniProt Q13043 1-487, limits assumed)
T3 sequence (looked up): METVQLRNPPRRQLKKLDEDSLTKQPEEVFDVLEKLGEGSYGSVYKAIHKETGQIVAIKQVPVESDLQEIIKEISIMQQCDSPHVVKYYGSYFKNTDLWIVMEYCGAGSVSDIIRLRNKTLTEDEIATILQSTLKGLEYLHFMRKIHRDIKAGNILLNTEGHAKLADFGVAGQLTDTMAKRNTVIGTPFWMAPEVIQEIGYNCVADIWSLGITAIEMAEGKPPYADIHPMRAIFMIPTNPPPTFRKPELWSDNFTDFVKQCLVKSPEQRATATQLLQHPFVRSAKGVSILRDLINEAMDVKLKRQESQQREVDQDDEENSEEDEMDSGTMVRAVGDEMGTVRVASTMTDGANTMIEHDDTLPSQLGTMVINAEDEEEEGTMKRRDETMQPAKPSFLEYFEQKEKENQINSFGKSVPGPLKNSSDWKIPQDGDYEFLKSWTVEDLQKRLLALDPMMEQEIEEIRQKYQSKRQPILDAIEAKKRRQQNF

T4: BrSK1(h) (human, UniProt Q8TDC3 1-778, limits assumed)
T4 sequence (looked up): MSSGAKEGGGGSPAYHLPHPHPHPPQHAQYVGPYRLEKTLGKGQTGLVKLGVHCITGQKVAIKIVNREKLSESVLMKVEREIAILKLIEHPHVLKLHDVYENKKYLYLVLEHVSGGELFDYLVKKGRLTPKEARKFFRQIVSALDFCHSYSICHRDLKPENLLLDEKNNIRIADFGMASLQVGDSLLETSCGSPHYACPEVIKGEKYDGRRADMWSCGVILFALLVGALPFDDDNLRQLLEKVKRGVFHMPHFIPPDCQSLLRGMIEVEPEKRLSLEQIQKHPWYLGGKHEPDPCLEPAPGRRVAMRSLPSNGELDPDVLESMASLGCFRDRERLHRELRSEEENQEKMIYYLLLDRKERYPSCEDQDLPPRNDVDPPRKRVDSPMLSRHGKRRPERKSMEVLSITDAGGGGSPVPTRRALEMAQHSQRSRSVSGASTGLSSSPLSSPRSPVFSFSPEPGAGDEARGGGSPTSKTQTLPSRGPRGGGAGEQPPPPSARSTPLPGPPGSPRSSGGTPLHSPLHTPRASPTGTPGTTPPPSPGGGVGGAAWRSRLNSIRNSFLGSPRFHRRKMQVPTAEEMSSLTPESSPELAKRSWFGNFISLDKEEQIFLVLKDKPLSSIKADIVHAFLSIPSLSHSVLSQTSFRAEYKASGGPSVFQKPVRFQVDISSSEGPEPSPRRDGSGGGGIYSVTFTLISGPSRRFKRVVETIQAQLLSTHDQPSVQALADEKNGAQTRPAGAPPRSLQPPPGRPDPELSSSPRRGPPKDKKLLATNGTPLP

T5: Txk(h) (human, UniProt P42681 1-527, limits assumed)
T5 sequence (looked up): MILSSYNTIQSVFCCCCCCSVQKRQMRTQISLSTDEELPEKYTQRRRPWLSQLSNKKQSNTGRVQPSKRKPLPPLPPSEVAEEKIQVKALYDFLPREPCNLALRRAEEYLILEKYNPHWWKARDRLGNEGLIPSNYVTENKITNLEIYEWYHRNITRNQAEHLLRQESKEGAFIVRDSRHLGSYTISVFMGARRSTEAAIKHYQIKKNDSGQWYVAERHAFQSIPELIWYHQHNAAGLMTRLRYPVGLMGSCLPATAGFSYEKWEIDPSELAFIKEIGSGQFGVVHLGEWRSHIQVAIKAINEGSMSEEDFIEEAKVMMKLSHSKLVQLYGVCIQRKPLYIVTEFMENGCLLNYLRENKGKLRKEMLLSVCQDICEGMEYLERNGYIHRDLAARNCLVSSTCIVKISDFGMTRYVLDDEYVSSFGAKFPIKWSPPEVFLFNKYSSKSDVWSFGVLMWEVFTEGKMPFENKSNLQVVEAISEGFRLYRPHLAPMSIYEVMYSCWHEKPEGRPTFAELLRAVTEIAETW


Tests used:
Assay in all cases: cell-based or functional assay
PKCδ(h) = PKCδ(h) (human, UniProt Q05655 1-676)
PDK1(h) = biological target: T1, PDK1(h)
ULK3(h) = biological target: T2, ULK3(h)
MST1(h) = biological target: T3, MST1(h)
BrSK1(h) = biological target: T4, BrSK1(h)
Txk(h) = biological target: T5, Txk(h)
Further: test concentration or dose not given here.

PKCδ(h), sequence (Q05655 whole entry, stated change not applied): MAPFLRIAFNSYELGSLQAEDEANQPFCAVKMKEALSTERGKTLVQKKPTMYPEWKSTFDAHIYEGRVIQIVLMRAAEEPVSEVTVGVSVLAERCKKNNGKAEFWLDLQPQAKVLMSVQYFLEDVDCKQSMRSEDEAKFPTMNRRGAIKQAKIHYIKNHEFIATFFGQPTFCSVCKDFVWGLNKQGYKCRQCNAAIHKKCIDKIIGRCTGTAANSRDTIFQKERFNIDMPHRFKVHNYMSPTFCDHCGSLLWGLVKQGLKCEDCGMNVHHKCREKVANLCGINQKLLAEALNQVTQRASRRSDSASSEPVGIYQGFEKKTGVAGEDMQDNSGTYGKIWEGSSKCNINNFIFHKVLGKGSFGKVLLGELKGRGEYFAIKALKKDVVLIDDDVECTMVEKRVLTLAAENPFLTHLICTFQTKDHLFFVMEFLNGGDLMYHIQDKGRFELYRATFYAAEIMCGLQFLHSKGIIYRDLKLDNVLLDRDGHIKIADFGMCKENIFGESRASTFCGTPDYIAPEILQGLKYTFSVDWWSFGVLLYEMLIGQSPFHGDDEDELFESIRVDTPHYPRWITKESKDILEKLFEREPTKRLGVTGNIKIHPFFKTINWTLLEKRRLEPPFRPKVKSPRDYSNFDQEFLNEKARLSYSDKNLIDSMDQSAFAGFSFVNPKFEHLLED

Row | % activity (PKCδ(h)) [%] | % activity (PDK1(h)) [%] | % activity (ULK3(h)) [%] | % activity (MST1(h)) [%] | % activity (BrSK1(h)) [%] | % activity (Txk(h)) [%] | Binder
1 | 101 | 135 | 167 | 14 | 67 | 48 | FAKLAARLYRKALARQLGVAA [MMI-0300]
2 | 90 | 159 | 147 | 6 | 76 | 37 | KAFAKLAARLYRKALARQLGVAA [MMI-0400]

Reference: US20160200782A1 (MOERAE MATRIX, published 2016)
